# Measured values reported in US10919943B2, “Mutant proteins enabling agrochemical control of plant gene expression” (The Regents of the University of California, priority 2016, dated 2021).
# T1: PYR1 (Arabidopsis thaliana, UniProt O49686)
# T1 construct: expressed in transfected cells; host or cells: S. cerevisiae strain Y190
# T1 sequence (O49686 1-191): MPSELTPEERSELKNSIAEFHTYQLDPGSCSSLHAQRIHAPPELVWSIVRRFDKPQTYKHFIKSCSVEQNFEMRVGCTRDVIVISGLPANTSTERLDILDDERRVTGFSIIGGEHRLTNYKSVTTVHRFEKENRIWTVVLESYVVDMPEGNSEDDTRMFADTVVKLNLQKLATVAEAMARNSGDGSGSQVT
# Target: T1, PYR1
# Assay: Yeast two hybrid of pACT-HAB1 site saturation mutants with pBD-PYR1 on 10 μM ABA, β-galactosidase staining
# Assay type: cell-based
# Design: key: x: Mutations in HAB1 that disrupt HAB1 interaction with PYR1
# Details: S. cerevisiae Y190, 10 μM ABA; dead = lack of detectable staining in comparison to wild type control
# Summary of the method: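 Read-out is β-galactosidase staining of chloroform-lysed Y190 colonies grown 2 days at 30 °C on SD (-Leu,-Trp) plus 10 μM ABA. Each pACT-HAB1 single-substitution mutant (N-terminally truncated by three residues) was paired with pBD-PYR1; absence of detectable staining relative to wild type scored as dead.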
row,Molecule,Mutations in HAB1 that disrupt HAB1 interaction with PYR1
1,"E203W: HAB1 mutant (protein, listed as Arabidopsis thaliana) MEEMTPAVAMTLSLAANTMCESSPVEITQLKNVTDAADLLSDSENQSFCNGGTECTMEDVSELEEVGEQDLLKTLSDTRSGSSNVFDEDDVLSVVEDNSAVISEGLLVVDAGSELSLSNTAMEIDNGRVLATAIIVGESSIEQVPTAEVLIAGVNQDTNTSEVVIRLPDENSNHLVKGRSVYELDCIPLWGTVSIQGNRSEMWDAFAVSPHFLKLPIKMLMGDHEGMSPSLTHLTGHFFGVYDGHGGHKVADYCRDRLHFALAEEIERIKDELCKRNTGEGRQVQWDKVFTSCFLTVDGEIEGKIGRAVVGSSDKVLEAVASETVGSTAVVALVCSSHIVVSNCGDSRAVLFRGKEAMPLSVDHKPDREDEYARIENAGGKVIQWQGARVFGVLAMSRSIGDRYLKPYVIPEPEVTFMPRSREDECLILASDGLWDVMNNQEVCEIARRRILMWHKKNGAPPLAERGKGIDPACQAAADYLSMLALQKGSKDNISIIVIDLKAQRKFKTRT",x
2,"Y404E: HAB1 mutant (protein, UniProt Q9CAJ0 23-511, looked up, variant Y404E) Protein phosphatase 2C 16: SPVEITQLKNVTDAADLLSDSENQSFCNGGTECTMEDVSELEEVGEQDLLKTLSDTRSGSSNVFDEDDVLSVVEDNSAVISEGLLVVDAGSELSLSNTAMEIDNGRVLATAIIVGESSIEQVPTAEVLIAGVNQDTNTSEVVIRLPDENSNHLVKGRSVYELDCIPLWGTVSIQGNRSEMEDAFAVSPHFLKLPIKMLMGDHEGMSPSLTHLTGHFFGVYDGHGGHKVADYCRDRLHFALAEEIERIKDELCKRNTGEGRQVQWDKVFTSCFLTVDGEIEGKIGRAVVGSSDKVLEAVASETVGSTAVVALVCSSHIVVSNCGDSRAVLFRGKEAMPLSVDHKPDREDEYARIENAGGKVIQWQGARVFGVLAMSRSIGDRELKPYVIPEPEVTFMPRSREDECLILASDGLWDVMNNQEVCEIARRRILMWHKKNGAPPLAERGKGIDPACQAAADYLSMLALQKGSKDNISIIVIDLKAQRKFKTRT",x
3,"Y404K: HAB1 mutant (protein, UniProt Q9CAJ0 23-511, looked up, variant Y404K) Protein phosphatase 2C 16: SPVEITQLKNVTDAADLLSDSENQSFCNGGTECTMEDVSELEEVGEQDLLKTLSDTRSGSSNVFDEDDVLSVVEDNSAVISEGLLVVDAGSELSLSNTAMEIDNGRVLATAIIVGESSIEQVPTAEVLIAGVNQDTNTSEVVIRLPDENSNHLVKGRSVYELDCIPLWGTVSIQGNRSEMEDAFAVSPHFLKLPIKMLMGDHEGMSPSLTHLTGHFFGVYDGHGGHKVADYCRDRLHFALAEEIERIKDELCKRNTGEGRQVQWDKVFTSCFLTVDGEIEGKIGRAVVGSSDKVLEAVASETVGSTAVVALVCSSHIVVSNCGDSRAVLFRGKEAMPLSVDHKPDREDEYARIENAGGKVIQWQGARVFGVLAMSRSIGDRKLKPYVIPEPEVTFMPRSREDECLILASDGLWDVMNNQEVCEIARRRILMWHKKNGAPPLAERGKGIDPACQAAADYLSMLALQKGSKDNISIIVIDLKAQRKFKTRT",x
4,"Y404G: HAB1 mutant (protein, UniProt Q9CAJ0 23-511, looked up, variant Y404G) Protein phosphatase 2C 16: SPVEITQLKNVTDAADLLSDSENQSFCNGGTECTMEDVSELEEVGEQDLLKTLSDTRSGSSNVFDEDDVLSVVEDNSAVISEGLLVVDAGSELSLSNTAMEIDNGRVLATAIIVGESSIEQVPTAEVLIAGVNQDTNTSEVVIRLPDENSNHLVKGRSVYELDCIPLWGTVSIQGNRSEMEDAFAVSPHFLKLPIKMLMGDHEGMSPSLTHLTGHFFGVYDGHGGHKVADYCRDRLHFALAEEIERIKDELCKRNTGEGRQVQWDKVFTSCFLTVDGEIEGKIGRAVVGSSDKVLEAVASETVGSTAVVALVCSSHIVVSNCGDSRAVLFRGKEAMPLSVDHKPDREDEYARIENAGGKVIQWQGARVFGVLAMSRSIGDRGLKPYVIPEPEVTFMPRSREDECLILASDGLWDVMNNQEVCEIARRRILMWHKKNGAPPLAERGKGIDPACQAAADYLSMLALQKGSKDNISIIVIDLKAQRKFKTRT",x

# Continued, values first:
row,Mutations in HAB1 that disrupt HAB1 interaction with PYR1,Molecule
1,x,"E203T: HAB1 mutant (protein, listed as Arabidopsis thaliana) MEEMTPAVAMTLSLAANTMCESSPVEITQLKNVTDAADLLSDSENQSFCNGGTECTMEDVSELEEVGEQDLLKTLSDTRSGSSNVFDEDDVLSVVEDNSAVISEGLLVVDAGSELSLSNTAMEIDNGRVLATAIIVGESSIEQVPTAEVLIAGVNQDTNTSEVVIRLPDENSNHLVKGRSVYELDCIPLWGTVSIQGNRSEMTDAFAVSPHFLKLPIKMLMGDHEGMSPSLTHLTGHFFGVYDGHGGHKVADYCRDRLHFALAEEIERIKDELCKRNTGEGRQVQWDKVFTSCFLTVDGEIEGKIGRAVVGSSDKVLEAVASETVGSTAVVALVCSSHIVVSNCGDSRAVLFRGKEAMPLSVDHKPDREDEYARIENAGGKVIQWQGARVFGVLAMSRSIGDRYLKPYVIPEPEVTFMPRSREDECLILASDGLWDVMNNQEVCEIARRRILMWHKKNGAPPLAERGKGIDPACQAAADYLSMLALQKGSKDNISIIVIDLKAQRKFKTRT"
2,x,"E203D: HAB1 mutant (protein, listed as Arabidopsis thaliana) MEEMTPAVAMTLSLAANTMCESSPVEITQLKNVTDAADLLSDSENQSFCNGGTECTMEDVSELEEVGEQDLLKTLSDTRSGSSNVFDEDDVLSVVEDNSAVISEGLLVVDAGSELSLSNTAMEIDNGRVLATAIIVGESSIEQVPTAEVLIAGVNQDTNTSEVVIRLPDENSNHLVKGRSVYELDCIPLWGTVSIQGNRSEMDDAFAVSPHFLKLPIKMLMGDHEGMSPSLTHLTGHFFGVYDGHGGHKVADYCRDRLHFALAEEIERIKDELCKRNTGEGRQVQWDKVFTSCFLTVDGEIEGKIGRAVVGSSDKVLEAVASETVGSTAVVALVCSSHIVVSNCGDSRAVLFRGKEAMPLSVDHKPDREDEYARIENAGGKVIQWQGARVFGVLAMSRSIGDRYLKPYVIPEPEVTFMPRSREDECLILASDGLWDVMNNQEVCEIARRRILMWHKKNGAPPLAERGKGIDPACQAAADYLSMLALQKGSKDNISIIVIDLKAQRKFKTRT"
3,x,"Y404D: HAB1 mutant (protein, UniProt Q9CAJ0 23-511, looked up, variant Y404D) Protein phosphatase 2C 16: SPVEITQLKNVTDAADLLSDSENQSFCNGGTECTMEDVSELEEVGEQDLLKTLSDTRSGSSNVFDEDDVLSVVEDNSAVISEGLLVVDAGSELSLSNTAMEIDNGRVLATAIIVGESSIEQVPTAEVLIAGVNQDTNTSEVVIRLPDENSNHLVKGRSVYELDCIPLWGTVSIQGNRSEMEDAFAVSPHFLKLPIKMLMGDHEGMSPSLTHLTGHFFGVYDGHGGHKVADYCRDRLHFALAEEIERIKDELCKRNTGEGRQVQWDKVFTSCFLTVDGEIEGKIGRAVVGSSDKVLEAVASETVGSTAVVALVCSSHIVVSNCGDSRAVLFRGKEAMPLSVDHKPDREDEYARIENAGGKVIQWQGARVFGVLAMSRSIGDRDLKPYVIPEPEVTFMPRSREDECLILASDGLWDVMNNQEVCEIARRRILMWHKKNGAPPLAERGKGIDPACQAAADYLSMLALQKGSKDNISIIVIDLKAQRKFKTRT"
4,x,"E201H: HAB1 mutant (protein, UniProt Q9CAJ0 23-511, looked up, variant E201H) Protein phosphatase 2C 16: SPVEITQLKNVTDAADLLSDSENQSFCNGGTECTMEDVSELEEVGEQDLLKTLSDTRSGSSNVFDEDDVLSVVEDNSAVISEGLLVVDAGSELSLSNTAMEIDNGRVLATAIIVGESSIEQVPTAEVLIAGVNQDTNTSEVVIRLPDENSNHLVKGRSVYELDCIPLWGTVSIQGNRSHMEDAFAVSPHFLKLPIKMLMGDHEGMSPSLTHLTGHFFGVYDGHGGHKVADYCRDRLHFALAEEIERIKDELCKRNTGEGRQVQWDKVFTSCFLTVDGEIEGKIGRAVVGSSDKVLEAVASETVGSTAVVALVCSSHIVVSNCGDSRAVLFRGKEAMPLSVDHKPDREDEYARIENAGGKVIQWQGARVFGVLAMSRSIGDRYLKPYVIPEPEVTFMPRSREDECLILASDGLWDVMNNQEVCEIARRRILMWHKKNGAPPLAERGKGIDPACQAAADYLSMLALQKGSKDNISIIVIDLKAQRKFKTRT"
5,x,"E201K: HAB1 mutant (protein, UniProt Q9CAJ0 23-511, looked up, variant E201K) Protein phosphatase 2C 16: SPVEITQLKNVTDAADLLSDSENQSFCNGGTECTMEDVSELEEVGEQDLLKTLSDTRSGSSNVFDEDDVLSVVEDNSAVISEGLLVVDAGSELSLSNTAMEIDNGRVLATAIIVGESSIEQVPTAEVLIAGVNQDTNTSEVVIRLPDENSNHLVKGRSVYELDCIPLWGTVSIQGNRSKMEDAFAVSPHFLKLPIKMLMGDHEGMSPSLTHLTGHFFGVYDGHGGHKVADYCRDRLHFALAEEIERIKDELCKRNTGEGRQVQWDKVFTSCFLTVDGEIEGKIGRAVVGSSDKVLEAVASETVGSTAVVALVCSSHIVVSNCGDSRAVLFRGKEAMPLSVDHKPDREDEYARIENAGGKVIQWQGARVFGVLAMSRSIGDRYLKPYVIPEPEVTFMPRSREDECLILASDGLWDVMNNQEVCEIARRRILMWHKKNGAPPLAERGKGIDPACQAAADYLSMLALQKGSKDNISIIVIDLKAQRKFKTRT"
6,x,"H245A: HAB1 mutant (protein, UniProt Q9CAJ0 23-511, looked up, variant H245A) Protein phosphatase 2C 16: SPVEITQLKNVTDAADLLSDSENQSFCNGGTECTMEDVSELEEVGEQDLLKTLSDTRSGSSNVFDEDDVLSVVEDNSAVISEGLLVVDAGSELSLSNTAMEIDNGRVLATAIIVGESSIEQVPTAEVLIAGVNQDTNTSEVVIRLPDENSNHLVKGRSVYELDCIPLWGTVSIQGNRSEMEDAFAVSPHFLKLPIKMLMGDHEGMSPSLTHLTGHFFGVYDGAGGHKVADYCRDRLHFALAEEIERIKDELCKRNTGEGRQVQWDKVFTSCFLTVDGEIEGKIGRAVVGSSDKVLEAVASETVGSTAVVALVCSSHIVVSNCGDSRAVLFRGKEAMPLSVDHKPDREDEYARIENAGGKVIQWQGARVFGVLAMSRSIGDRYLKPYVIPEPEVTFMPRSREDECLILASDGLWDVMNNQEVCEIARRRILMWHKKNGAPPLAERGKGIDPACQAAADYLSMLALQKGSKDNISIIVIDLKAQRKFKTRT"
